Positions count from the first letter of the chain named. One block for each binder: values may come before it.
Columns and labels:
[1] = molecular target: T1, human activated protein C (human, UniProt P04070 43-197; P04070 212-461); assay: ELISA, plate coated with haPC 1 ug/mL, anti-hIgG-Fc-HRP
T1 construct: In the plasma assays aPC is generated in human plasma with Protac; also called aPC; haPC
Procedure: (§1) The binding abilities of the anti-aPC monoclonal antibodies to haPC/hPC were assayed by Elisa. […] 1. ELISA plates were coated with haPC/hPC (1 ug/mL in PBS), 100 μL/well, at 4° C. overnight. […] 2. The plates were washed 3 times with PBST (0.1% Tween 20), 200 μL/well. […] 3. The plates were blocked with 2% BSA (PBS solution), 200 μL/well, at room temperature for 1 hour. […] 4. The plates were washed 3 times with PBST (0.1% Tween 20), 200 μL/well. […] 5. The plates were incubated with anti-aPC monoclonal antibody as primary antibody (diluted from 10 μg/mL in 2% BSA), 100 μL/well, at room temperature for 1 hour. […] 6. The plates were washed 3 times with PBST (0.1% Tween 20), 200 μL/well. [0200] 7. The plates were incubated with anti-hIgG-Fc antibody-HRP (diluted 5000-fold in 2% BSA buffer) at room temperature for 1 hour. [0201] 8. The plates were washed 6 times with PBST (0.1% Tween 20), 200 μL/well. [0202] 9. The plates were incubated with a TMB substrate (prepared from solutions A and B at 1:1 (v/v)), 100 μL/well, away from light for 10 minutes. […] 10. The reaction was quenched with HCl (1 M), 100 μL/well, and OD450 was read.

[2] = molecular target: T1, human activated protein C; assay: Octet BLI, antibody on Protein A sensor, huAPC 3.13-50 nM, 1:1 model, 25 C, pH 7.4
Procedure: Assay method: Octet analysis was carried out at 25° C. using a Protein A Octet biosensor in 1× Kinetics buffer. During the kinetics assay, the baseline step assay was run in 1× Kinetics buffer for 120 seconds, and then run for 240 seconds after the antibody was loaded to the biosensor. Next, the baseline 2 step assay was run in 1× Kinetics buffer for 120 seconds. […] The 1× Kinetics buffer was used as a blank control to show the natural dissociation of the antibody in the buffer. 10 mM glycine at pH 1.5 was used for the regeneration step. Octet data analysis software was used to calculate binding kinetics, and a 1:1 binding model was used for curve fitting.
The affinities of the mutant antibodies were assayed at pH 7.4.

human protein C [3] = molecular target: T2, human protein C (human, UniProt P04070 43-461); assay: ELISA, plate coated with hPC 1 ug/mL, anti-hIgG-Fc-HRP
T2 construct: Zymogen form, coated on ELISA plates; also called hPC; PC
Procedure: as §1

[4] = molecular target: T1, human activated protein C; assay: cell-based or functional assay
human protein C [5] = molecular target: T2, human protein C; assay: ELISA on plate-coated HPC, OD450
Procedure: as §1

[6] = molecular target: T1, human activated protein C; assay: ELISA on plate-coated APC (1 ug/ml), OD 450; EC50 from the table drawn beside the curves; no unit in the table, axis Ab Conc.(nM)

EC50 [1]: 0.114 nM
Span [1]: 2.11
Kd [2]: 3.83 nM
koff [2]: 0.00117 s⁻¹
kon [2]: 306000 M⁻¹ s⁻¹
Span (human protein C [3]): 0.023
Mean clotting time (s), FIX-deficient plasma, APC-antibody concentration 0.5 ug/ml [4]: 219 s
Mean clotting time (s), FIX-deficient plasma, APC-antibody concentration 1 ug/ml [4]: 195 s
Mean clotting time (s), FIX-deficient plasma, APC-antibody concentration 5 ug/ml [4]: 171 s
Mean clotting time (s), FVIII-deficient plasma, APC-antibody concentration 0.5 ug/ml [4]: 327 s
Mean clotting time (s), FVIII-deficient plasma, APC-antibody concentration 1 ug/ml [4]: 222 s
Mean clotting time (s), FVIII-deficient plasma, APC-antibody concentration 5 ug/ml [4]: 166 s
binding result (human protein C [5]): no binding (tested: 10^2 nM)
B1: HAPC-14-1 (antibody, V domains shown)
VH: EVQLVESGGGLVQPGGSLRLSCAASGFTFSFYYLNWVRQAPGKGLEWVGDIRLKSNNYEKHYAESVKGRFTISRDDSKSITYLQMNSLRAEDTAVYYCAREGDYFDYWGQGTTVTVSS
VL: DIQLTQSPSSLSASVGDRVTITCRASESVDSFGATFMHWYQQKPGKAPKLLIYLASWLGSGVPSRFSGSGSGTDFTLTISSLQPEDFATYYCQQNNEDPYTFGQGTKLEIK
notes: Whole IgG, backbone hIgG1; also called HPAC14-1

EC50 [1]: 0.13 nM
Span [1]: 1.58
Kd [2]: 7.72 nM
koff [2]: 0.00197 s⁻¹
kon [2]: 256000 M⁻¹ s⁻¹
Span (human protein C [3]): ~0.00661
Mean clotting time (s), FIX-deficient plasma, APC-antibody concentration 0.5 ug/ml [4]: 241 s
Mean clotting time (s), FIX-deficient plasma, APC-antibody concentration 1 ug/ml [4]: 145 s
Mean clotting time (s), FIX-deficient plasma, APC-antibody concentration 5 ug/ml [4]: 146 s
Mean clotting time (s), FVIII-deficient plasma, APC-antibody concentration 0.5 ug/ml [4]: 297 s
Mean clotting time (s), FVIII-deficient plasma, APC-antibody concentration 1 ug/ml [4]: 198 s
Mean clotting time (s), FVIII-deficient plasma, APC-antibody concentration 5 ug/ml [4]: 176 s
binding result (human protein C [5]): no binding (tested: 10^2 nM)
B2: HAPC-14-7 (antibody, V domains shown)
VH: B1 VH
VL: B1 VL with W57R, G59E
notes: Whole IgG, backbone hIgG1; also called HPAC 14-7

EC50 [1]: 0.138 nM
Span [1]: 1.05
Kd [2]: 10.5 nM
koff [2]: 0.00262 s⁻¹
kon [2]: 250000 M⁻¹ s⁻¹
Span (human protein C [3]): -0.00465
Mean clotting time (s), FIX-deficient plasma, APC-antibody concentration 0.05 ug/ml [4]: 732 s
Mean clotting time (s), FIX-deficient plasma, APC-antibody concentration 0.1 ug/ml [4]: 392 s
Mean clotting time (s), FIX-deficient plasma, APC-antibody concentration 0.5 ug/ml [4]: 276 s
Mean clotting time (s), FVIII-deficient plasma, APC-antibody concentration 0.05 ug/ml [4]: 316 s
Mean clotting time (s), FVIII-deficient plasma, APC-antibody concentration 0.1 ug/ml [4]: 252 s
Mean clotting time (s), FVIII-deficient plasma, APC-antibody concentration 0.5 ug/ml [4]: 190 s
B3: HAPC-14-8 (antibody, V domains shown)
VH: B1 VH with S55K, Y104T
VL: B1 VL with W57R, Q93V
notes: Whole IgG, backbone hIgG1; also called HPAC 14-8

EC50 [1]: 0.111 nM
Span [1]: 1.77
Kd [2]: 3.78 nM
koff [2]: 0.00116 s⁻¹
kon [2]: 307000 M⁻¹ s⁻¹
Span (human protein C [3]): 0.0104
Mean clotting time (s), FIX-deficient plasma, APC-antibody concentration 0.5 ug/ml [4]: 233 s
Mean clotting time (s), FIX-deficient plasma, APC-antibody concentration 1 ug/ml [4]: 211 s
Mean clotting time (s), FIX-deficient plasma, APC-antibody concentration 5 ug/ml [4]: 143 s
Mean clotting time (s), FVIII-deficient plasma, APC-antibody concentration 0.5 ug/ml [4]: 358 s
Mean clotting time (s), FVIII-deficient plasma, APC-antibody concentration 1 ug/ml [4]: 196 s
Mean clotting time (s), FVIII-deficient plasma, APC-antibody concentration 5 ug/ml [4]: 159 s
binding result (human protein C [5]): no binding (tested: 10^2 nM)
B4: HAPC-14-2 (antibody, V domains shown)
VH: B1 VH with S55K
VL: B1 VL with G59E, Q93V
notes: Whole IgG, backbone hIgG1; also called HPAC 14-2

EC50 [6]: 0.249 nM
EC50 [1]: 0.22 nM
Span [1]: 0.291
Kd [2]: 254 nM
koff [2]: 0.0162 s⁻¹
kon [2]: 64000 M⁻¹ s⁻¹
Span (human protein C [3]): ~0.0387
Mean clotting time (s), FIX-deficient plasma, APC-antibody concentration 0.5 ug/ml [4]: 457 s
Mean clotting time (s), FIX-deficient plasma, APC-antibody concentration 1 ug/ml [4]: 415 s
Mean clotting time (s), FIX-deficient plasma, APC-antibody concentration 5 ug/ml [4]: 310 s
Mean clotting time (s), FVIII-deficient plasma, APC-antibody concentration 0.5 ug/ml [4]: 574 s
Mean clotting time (s), FVIII-deficient plasma, APC-antibody concentration 1 ug/ml [4]: 457 s
Mean clotting time (s), FVIII-deficient plasma, APC-antibody concentration 5 ug/ml [4]: 324 s
binding result (human protein C [5]): no binding (tested: 10^2 nM)
B5: Humanized antibody 14 (HAPC-14) (antibody, V domains shown)
VH: B1 VH with F31N
VL: B1 VL with W57N, G59E
notes: also called Humab001-14; NO; 14 antibody

— patent US20250277057A1 (OKLAHOMA MEDICAL RESEARCH FOUNDATION, published 2025)
